Experimental findings from the MegaScale stability set (Tsuboyama et al. 2023) are described below.

B1: EEHEE_rd4_0647 (parent)
chain: MQVTWGNVTVTFSNPEEAKKYAEKVARKLGGQVELHNGQFRIK

The data set covers variants of B1. As to the kind of experiment: folding stability dG (cDNA display proteolysis); higher = more stable. The conditions noted are these: PBS, room temperature.
With MQVTWGNVTVTFSNPEEAKKYAEKVARKLGGVVELHNGQFRIK [Q32V], the “folding stability dG” value turned out to be 3.29 kcal/mol.

For the variant MQVTWGNVTVTFSNDEEAKKYAEKVARKLGGQVELHNGQFRIK [P15D], the “folding stability dG” value is 1.92 kcal/mol.

With MQVTWGNVTVTFSNCEEAKKYAEKVARKLGGQVELHNGQFRIK [P15C], the “folding stability dG” value was found to be 3.26 kcal/mol.

On to MQVTWGNVTVTFSNPEEAKKYAEKVARKLGGQVESHNGQFRIK [L35S], for which the “folding stability dG” value was determined as 2.04 kcal/mol.

In the case of MQVTWGNVTVTFSNPEEAKKYAEKVARKLGGQVEQHNGQFRIK [L35Q], the “folding stability dG” value came out at 2.28 kcal/mol.

On to MQVTWGNVTVTFSNPEEAKKYAEKVARKLGGQVELHNGWFRIK [Q39W], for which the “folding stability dG” value is 1.7 kcal/mol.

As for MQVTWGNVTVTFSNPEEAKKYAEKVARKLGGQVELHNGSFRIK [Q39S], the “folding stability dG” value came to 2.65 kcal/mol.

For the variant MQVTWGNVTVTFSNPEEATKYAEKVARKLGGQVELHNGQFRIK [K19T], the “folding stability dG” value stood at 1.62 kcal/mol.

For MQVTWGNVTVTFSNPEEAKKYAEKVARKLGGQVFLHNGQFRIK [E34F], the “folding stability dG” value came to 2.6 kcal/mol.

Regarding MQVTWGNVTVTFSNPEEAKKYAEKVARKLGGQVGLHNGQFRIK [E34G], the “folding stability dG” value is 1.41 kcal/mol.

With MQVSWGNVTVTFSNPEEAKKYAEKVARKLGGQVELHNGQFRIK [T4S], the “folding stability dG” value is 2.81 kcal/mol.

On to MQVKWGNVTVTFSNPEEAKKYAEKVARKLGGQVELHNGQFRIK [T4K], for which the “folding stability dG” value came out at 2.58 kcal/mol.

Turning to MQVTWGNVTVTFSNPMEAKKYAEKVARKLGGQVELHNGQFRIK [E16M], the “folding stability dG” value turned out to be 2.76 kcal/mol.

Turning to MQVTWGNVTVTFSNPEEAKKYAEKVCRKLGGQVELHNGQFRIK [A26C], the “folding stability dG” value is 2.08 kcal/mol.

With MQVTWGNVTVTFSNPEEAKKYAEKVQRKLGGQVELHNGQFRIK [A26Q], the “folding stability dG” value came to 1.06 kcal/mol.

Turning to MQATWGNVTVTFSNPEEAKKYAEKVARKLGGQVELHNGQFRIK [V3A], the “folding stability dG” value turned out to be 0.626 kcal/mol.

Turning to MQLTWGNVTVTFSNPEEAKKYAEKVARKLGGQVELHNGQFRIK [V3L], the “folding stability dG” value came to 1.35 kcal/mol.

With MQVTQGNVTVTFSNPEEAKKYAEKVARKLGGQVELHNGQFRIK [W5Q], the “folding stability dG” value was found to be 0.719 kcal/mol.

As to MQVTFGNVTVTFSNPEEAKKYAEKVARKLGGQVELHNGQFRIK [W5F], the “folding stability dG” value worked out at 2.53 kcal/mol.

For the variant MQVTRGNVTVTFSNPEEAKKYAEKVARKLGGQVELHNGQFRIK [W5R], the “folding stability dG” value was found to be 0.966 kcal/mol.

As for MQVTWGNVTVTRSNPEEAKKYAEKVARKLGGQVELHNGQFRIK [F12R], the “folding stability dG” value is 0.663 kcal/mol.

On to MQVTWGNVTVTFSNPEEAKKYAEKVARKLGGQVELHNGQFREK [I42E], for which the “folding stability dG” value was 0.453 kcal/mol.

As to MQVTWGIVTVTFSNPEEAKKYAEKVARKLGGQVELHNGQFRIK [N7I], the “folding stability dG” value was found to be 2.31 kcal/mol.

On to MQVTWGTVTVTFSNPEEAKKYAEKVARKLGGQVELHNGQFRIK [N7T], for which the “folding stability dG” value was found to be 2.67 kcal/mol.

On to MQVTWGNVTVTFSVPEEAKKYAEKVARKLGGQVELHNGQFRIK [N14V], for which the “folding stability dG” value worked out at 2.05 kcal/mol.

With MQVTWGNVTVTFSFPEEAKKYAEKVARKLGGQVELHNGQFRIK [N14F], the “folding stability dG” value was found to be 1.98 kcal/mol.

Take MQVTWGNVTVTFSTPEEAKKYAEKVARKLGGQVELHNGQFRIK [N14T]: the “folding stability dG” value came to 2.89 kcal/mol.

Take MQVTWGNVTVTFSNPEEAKKYYEKVARKLGGQVELHNGQFRIK [A22Y]: the “folding stability dG” value came to 0.931 kcal/mol.

For the variant MQVTWGNVTVTFSNPEEAKKYGEKVARKLGGQVELHNGQFRIK [A22G], the “folding stability dG” value was 0.944 kcal/mol.

As to MQVTWGNVTVTFSNPEEAKKYIEKVARKLGGQVELHNGQFRIK [A22I], the “folding stability dG” value was 1.43 kcal/mol.

In the case of MQVTWGNVTVTFSNPEEAKKPAEKVARKLGGQVELHNGQFRIK [Y21P], the “folding stability dG” value was -0.824 kcal/mol.

With MQVTWGNVTVTFSNPEEAKKQAEKVARKLGGQVELHNGQFRIK [Y21Q], the “folding stability dG” value came to 0.996 kcal/mol.

In the case of MQVTWGNVTVTFSNPEEAKKSAEKVARKLGGQVELHNGQFRIK [Y21S], the “folding stability dG” value stood at 0.62 kcal/mol.

Take MQVTWGNVTVTFSNPEEAKKYAEKVARKLLGQVELHNGQFRIK [G30L]: the “folding stability dG” value was determined as 1.85 kcal/mol.

Consider MQVTWGNVTVTFSNPEEAKKYAEKVARKLKGQVELHNGQFRIK [G30K], for which the “folding stability dG” value came to 2.4 kcal/mol.

In the case of MQVTWGNVTVTFSNPEEAKKYAEKVARKLSGQVELHNGQFRIK [G30S], the “folding stability dG” value was found to be 1.98 kcal/mol.

For MQVTWGNVTVTFSNPEEAKKYAEKVARKLDGQVELHNGQFRIK [G30D], the “folding stability dG” value was 1.91 kcal/mol.

As to MQVTWGNVTVTFSNPEEAKKYAEKVARKLGGQVELHNGQFKIK [R41K], the “folding stability dG” value was 2.53 kcal/mol.

For the variant FQVTWGNVTVTFSNPEEAKKYAEKVARKLGGQVELHNGQFRIK [M1F], the “folding stability dG” value was 3.34 kcal/mol.

Consider QQVTWGNVTVTFSNPEEAKKYAEKVARKLGGQVELHNGQFRIK [M1Q], for which the “folding stability dG” value was determined as 2.03 kcal/mol.

As to MQVTWGNVTVTFSNPEEAKKYAEKVARKLGGQVELHFGQFRIK [N37F], the “folding stability dG” value came out at 1.9 kcal/mol.

Consider MQVTWGNVTVTFSNPEEAKKYAEKVARKLGGQVELHNGQFRIG [K43G], for which the “folding stability dG” value is 2.04 kcal/mol.

As for MQVTWGNVTVTFSNPEEAKKYAERVARKLGGQVELHNGQFRIK [K24R], the “folding stability dG” value came to 2.88 kcal/mol.

MQVTWGNVTVCFSNPEEAKKYAEKVARKLGGQVELHNGQFRIK [T11C]: the “folding stability dG” value was found to be 3.51 kcal/mol.

On to MQVTWGNVTVEFSNPEEAKKYAEKVARKLGGQVELHNGQFRIK [T11E], for which the “folding stability dG” value was 2.34 kcal/mol.

With MHVTWGNVTVTFSNPEEAKKYAEKVARKLGGQVELHNGQFRIK [Q2H], the “folding stability dG” value was 2.3 kcal/mol.

Consider MQVTWGNVTVTFSNPEEAKKYAEKVARKLGGQVELPNGQFRIK [H36P], for which the “folding stability dG” value was determined as 0.326 kcal/mol.

For the variant MQVTWGNVTVTFSNPEEAKKYAEKVARKLGGQVELCNGQFRIK [H36C], the “folding stability dG” value was 3.37 kcal/mol.

For the variant MQVTWGNVTVTFSNPEEAKKYAEKVARKLGGQVELINGQFRIK [H36I], the “folding stability dG” value is 3.34 kcal/mol.

Regarding MQVTWGNVTVTFSNPEEAKKYAEKVARKLGGQVELYNGQFRIK [H36Y], the “folding stability dG” value worked out at 2.79 kcal/mol.

As to MQVTWGNVTVTFPNPEEAKKYAEKVARKLGGQVELHNGQFRIK [S13P], the “folding stability dG” value worked out at 2.58 kcal/mol.

For the variant MQVTWGNVTVTFTNPEEAKKYAEKVARKLGGQVELHNGQFRIK [S13T], the “folding stability dG” value amounted to 2.83 kcal/mol.

In the case of MQVTWGNVTVTFCNPEEAKKYAEKVARKLGGQVELHNGQFRIK [S13C], the “folding stability dG” value came out at 3.28 kcal/mol.

As to MQVTWGNVTVTFSNPEEAKQYAEKVARKLGGQVELHNGQFRIK [K20Q], the “folding stability dG” value is 2.72 kcal/mol.

As for MQVTWGNVTVTFSNPEEAKNYAEKVARKLGGQVELHNGQFRIK [K20N], the “folding stability dG” value was found to be 2.58 kcal/mol.

MQVTWGNVTVTFSNPEEAKKYAEKVARKLGGQTELHNGQFRIK [V33T]: the “folding stability dG” value was 1.22 kcal/mol.

For MQVTWGNVTVTFSNPEEAKKYAEKVARKLGGQQELHNGQFRIK [V33Q], the “folding stability dG” value worked out at 0.541 kcal/mol.

In the case of MQVTWGNVTFTFSNPEEAKKYAEKVARKLGGQVELHNGQFRIK [V10F], the “folding stability dG” value is 2.53 kcal/mol.

On to MQVTWGNVTETFSNPEEAKKYAEKVARKLGGQVELHNGQFRIK [V10E], for which the “folding stability dG” value is 1.5 kcal/mol.
